T1: CD70 (Homo sapiens, UniProt P32970)
T1 sequence (P32970 1-193): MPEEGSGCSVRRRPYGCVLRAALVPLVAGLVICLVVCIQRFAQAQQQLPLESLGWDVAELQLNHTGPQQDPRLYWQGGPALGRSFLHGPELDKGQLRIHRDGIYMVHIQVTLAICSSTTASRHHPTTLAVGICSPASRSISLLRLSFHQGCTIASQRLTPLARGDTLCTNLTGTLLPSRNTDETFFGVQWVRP

T2: human CD70 expressed on the cell surface (human, UniProt P32970 1-193)
T2 construct: also called full length CD70 on transfected CHO cells
T2 sequence: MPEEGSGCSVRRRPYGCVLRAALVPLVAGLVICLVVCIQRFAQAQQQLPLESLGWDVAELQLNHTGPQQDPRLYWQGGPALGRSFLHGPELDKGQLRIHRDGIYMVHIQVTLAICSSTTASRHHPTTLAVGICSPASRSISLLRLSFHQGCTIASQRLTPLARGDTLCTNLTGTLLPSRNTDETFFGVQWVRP


How the values were obtained:
CD70 = target: T1, CD70; experiment: Epitope binding experiments using BIAcore
Procedure: Such cross-competing antibodies can be identified based on their ability to cross-compete with 2H5, 10B4, 8B5, 18E7, 69A7, 69A7Y or 1F4 in standard CD70 binding assays. For example, standard ELISA assays can be used in which a recombinant human CD70 protein is immobilized on the plate, one of the antibodies is fluorescently labeled and the ability of non-labeled antibodies to compete off the binding of the labeled antibody is evaluated. Additionally or alternatively, BIAcore analysis can be used to assess the ability of the antibodies to cross-compete.

[1] = target: T2, human CD70 expressed on the cell surface; experiment: flow cytometry on 786-O cells, MFI
Procedure: Binding of the anti-CD70 human monoclonal antibodies was assessed by incubating 5×10⁵ cells with antibody at a starting concentration of 10 μg/ml and serially diluting the antibody at a 1:3 dilution. The cells were washed and binding was detected with a PE-labeled anti-human IgG Ab. Flow cytometric analyses were performed using a FACSCalibur flow cytometry (Becton Dickinson, San Jose, Calif.).

SU-DHL-6 cells = experiment: ADCC fluorescence cytotoxicity assay, SU-DHL-6; assay type: cell-based, human; details: target to effector ratio 1:50
Procedure: (§1) In this example, a defucosylated and non-defucosylated anti-CD70 monoclonal antibody was tested for the ability to kill CD70+cells in the presence of effector cells via antibody dependent cellular cytotoxicity (ADCC) in a fluorescence cytotoxicity assay
(§2) Human Anti-CD70 monoclonal antibody 2H5 was defucosylated as described above. Human effector cells were prepared from whole blood as follows. Human peripheral blood mononuclear cells were purified from heparinized whole blood by standard Ficoll-paque separation. The cells were resuspended in RPMI1640 media containing 10% FBS (culture media) and 200 U/ml of human IL-2 and incubated overnight at 37° C. The following day, the cells were collected and washed once in culture media and resuspended at 2×10^7 cells/ml. […]
(§3) The CD70+ cell lines ARH-77 (human B lymphoblast leukemia; ATCC Accession No. CRL-1621), MEC-1 (human chronic B cell leukemia; DSMZ Accession No. ACC 497), SU-DHL-6 (human B cell lymphoma, DSMZ Accession No. Acc572), IM-9 (human B lymphoblast; ATCC Accession No. CCL-159) and HuT 78 (human cutaneous lymphocyte lymphoma; ATCC Accession No. TIB-161), were tested for antibody specific ADCC to the defucosylated and non-defucosylated human anti-CD70 monoclonal antibody 2H5 using the Delfia fluorescence emission analysis as follows. […]

IM-9 cells = experiment: ADCC fluorescence cytotoxicity assay, IM-9; assay type: cell-based, human; details: target to effector ratio 1:50
Procedure: as §1, §2, §3

[2] = tested on: CD70 costimulation of human CD3+ T cells; experiment: CD70 co-stimulated human T cell proliferation and IFN-γ secretion; assay type: cell-based; details: CHO-S/mCD32/CD70 cells + anti-hCD3, 3 days
Procedure: In this experiment, the HuMAb anti-CD70 antibody 2H5 was tested for inhibition of inflammatory responses. CHO-S cells stably transfected with mouse CD32 (CHO-S/mCD32 cells) were transiently transfected with a full length human CD70 construct (CHO-S/mCD32/CD70 cells). Surface expression was confirmed by flow cytometry using 2A5 and PE conjugated anti-human IgG secondary Ab (data not shown). RosetteSep® Human T Cell Enrichment Kit (Cat# 15061; StemCell Technologies Inc) purified human peripheral blood CD3^+ T cells were stimulated in vitro at 1×10^6/well with 1×10^5 CHO-S/mCD32 or CHO-S/mCD32/CD70 cells/well, 1μg/ml anti-hCD3 (clone OKT3; BD Bioscience) and serial dilutions of either the HuMAb 2H5 or non-fucosylated 2H5 (2H5 NF) in triplicate wells of a 96 well plate. After 3 days supernatant aliquots were collected and interferon-gamma (INF-γ) secretion was measured by a quantitative ELISA kit (BD Biosciences). The plates were pulsed with 1 μCi/ml of ^3H-thymidine, incubated for 8 hours, cells were harvested and ^3H-thymidine incorporation was read on a Trilux® 1450 Microbeta Counter (Wallac, Inc.). An IgG1 isotype control antibody was used as a negative control. […] Data also show 2H5 inhibition is specific to CD70 costimulation as 2H5 had no effect on anti-CD3^+ CHO-S/mCD32 mediated proliferation. […]

Row | epitope on CD70 (CD70) | EC50 [1] | Molecule | ADCC, % specific lysis of SU-DHL-6 (SU-DHL-6 cells) | ADCC, % specific lysis of IM-9 (IM-9 cells) | CD70 co-stimulated INF-γ secretion [2] | CD70 co-stimulated proliferation [2]
1 | distinct epitopes | 6.93 nM | anti-CD70 human monoclonal antibody 69A7 (antibody, V domains shown, Human IgG from hybridoma; also called HuMAb 69A7; FITC-conjugated 69A7) VH: QVQLQESGPGLVKPSETLSLTCTVSGGSVSSDYYYWSWIRQPPGKGLEWLGYIYYSGSTNYNPSLKSRVTISVDTSKNQFSLKLRSVTTADTAVYYCARGDGDYGGNCFDYWGQGTLVTVSS VL: EIVLTQSPATLSLSPGERATLSCRASQSVSSYLAWYQQKPGQAPRLLIFDASNRATGIPARFSGSGSGTDFTLTISSLEPEDFAVYYCQQRSNWPLTFGGGTKVEIK |  |  |  | 
2 |  |  | 2H5 NF: 2H5 HuMAb lacking fucosyl residues, expressed in CHO cell line Ms704-PF (antibody, V domains shown) VH: QVQLVESGGGVVQPGRSLRLSCAASGFTFSSYIMHWVRQAPGKGLEWVAVISYDGRNKYYADSVKGRFTISRDNSKNTLYLQMNSLRAEDTAVYYCARDTDGYDFDYWGQGTLVTVSS VL: EIVLTQSPATLSLSPGERATLSCRASQSVSSYLAWYQQKPGQAPRLLIYDASNRATGIPARFSGSGSGTDFTLTISSLEPEDFAVYYCQQRTNWPLTFGGGTKVEIK | increased percentage of specific lysis | increased percentage of specific lysis | completely inhibited | completely inhibited

Reference: patent US20100150950A1, “HUMAN ANTIBODIES THAT BIND CD70 AND USES THEREOF” (Medarex, Inc., priority 2006, published 2010)
